Target: acetylcholine receptor (Homo sapiens, UniProt P02708)
Experiment: SPR binding affinity (RU) of optimized 5mer/6mer/7mer peptides, Examples 6-7
Settings: SPR, peptides tested at 10 μM
Method in brief: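 Binding response (RU) to the human acetylcholine receptor was measured by SPR. Each 5mer or 6mer library peptide was applied at 10 μM, with sequences drawn from top and bottom amino-acid combinations.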

[1] = Resonance Units, 5mer Bottom sequence (bottom combinations)
[2] = 6mer-1 Top sequence (top combinations)

Sequence of acetylcholine receptor (P02708 21-457): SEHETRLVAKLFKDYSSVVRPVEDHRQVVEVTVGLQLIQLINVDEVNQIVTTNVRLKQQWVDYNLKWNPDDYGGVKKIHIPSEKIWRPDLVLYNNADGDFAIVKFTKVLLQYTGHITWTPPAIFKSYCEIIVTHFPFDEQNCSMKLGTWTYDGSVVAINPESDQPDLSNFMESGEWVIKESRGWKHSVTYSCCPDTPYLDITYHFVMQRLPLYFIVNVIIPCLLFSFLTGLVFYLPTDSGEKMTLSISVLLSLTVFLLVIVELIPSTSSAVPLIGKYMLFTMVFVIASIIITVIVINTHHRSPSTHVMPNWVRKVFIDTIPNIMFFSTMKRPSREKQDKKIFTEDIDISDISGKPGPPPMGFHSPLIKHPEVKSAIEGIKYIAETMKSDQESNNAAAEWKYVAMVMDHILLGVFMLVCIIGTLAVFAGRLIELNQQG

Row | Substance | Binding affinity [1] [Ru] | Binding affinity (5mer Bottom sequence) [Ru] | also measured
1 | 5mer-1067 (KHENK) | 23 | – | –
2 | 5mer-1068 (RMHKK) | 11 | – | –
3 | 5mer-1069 (RPSFK) | 31 | – | –
4 | 5mer-1070 (RETGK) | 26 | – | –
5 | 5mer-1071 (RYEGR) | 16 | – | –
6 | 5mer-1072 (KDWPK) | 32 | – | –
7 | 5mer-1073 (RDEAK) | 29 | – | –
8 | 5mer-1074 (RPCPR) | 17 | – | –
9 | 5mer-1075 (RKHIK) | 26 | – | –
10 | 5mer-1076 (KFEKK) | 21 | – | –
11 | 5mer-1077 (KADMK) | 12 | – | –
12 | 5mer-1078 (KEAWK) | 19 | – | –
13 | 5mer-1079 (KYTGR) | 31 | – | –
14 | 5mer-1080 (RYTHK) | 25 | – | –
15 | 5mer-1081 (RPNVR) | 13 | – | –
16 | 5mer-1082 (RACFR) | 11 | – | –
17 | 5mer-1083 (KFSVR) | 31 | – | –
18 | 5mer-1084 (RTHDR) | 21 | – | –
19 | 5mer-1085 (RTTER) | 14 | – | –
20 | 5mer-1086 (RIWDR) | 19 | – | –
21 | 5mer-1087 (KKKKR) | 11 | – | –
22 | 5mer-1088 (KAKKK) | 16 | – | –
23 | 5mer-1089 (KTHHR) | 29 | – | –

Row | Substance | Binding affinity [1] [Ru] | Binding affinity (5mer Bottom sequence) [Ru] | also measured
24 | 5mer-1090 (KISGK) | 31 | – | –
25 | 5mer-1091 (KTEHR) | 29 | – | –
26 | 5mer-1092 (KPMVK) | 12 | – | –
27 | 5mer-1093 (REEDK) | 32 | – | –
28 | 5mer-1094 (RYSMK) | 15 | – | –
29 | 5mer-1095 (KAEKR) | 27 | – | –
30 | 5mer-1096 (RPTDK) | 15 | – | –
31 | 5mer-1097 (KPDIR) | 28 | – | –
32 | 5mer-1098 (RFHGR) | 31 | – | –
33 | 5mer-1099 (RATAR) | 14 | – | –
34 | 5mer-1100 (RPWKR) | 24 | – | –
35 | 5mer-1101 (KYKNR) | 11 | – | –
36 | 5mer-1102 (KTHKK) | 20 | – | –
37 | 5mer-1103 (KKSHR) | 18 | – | –
38 | 5mer-1104 (RETHK) | 12 | – | –
39 | 5mer-1105 (RPTKR) | 33 | – | –
40 | 5mer-1106 (RYTER) | 18 | – | –
41 | 5mer-1107 (RPWHK) | 21 | – | –
42 | 5mer-1108 (RNPIR) | 19 | – | –
43 | 5mer-1109 (KCHPK) | 14 | – | –
44 | 5mer-1110 (RMHMK) | 13 | – | –
45 | 5mer-1111 (KAEHK) | 12 | – | –
46 | 5mer-1112 (RTTFK) | – | 29 | –

Row | Substance | Binding affinity [1] [Ru] | Binding affinity (5mer Bottom sequence) [Ru] | also measured
47 | 5mer-1113 (RHMER) | – | 19 | –
48 | 5mer-1114 (RKTFR) | – | 28 | –
49 | 5mer-1115 (KEPEK) | – | 27 | –
50 | 5mer-1116 (KECFR) | – | 24 | –
51 | 5mer-1117 (RHKIR) | – | 11 | –
52 | 5mer-1118 (RMDAR) | – | 28 | –
53 | 5mer-1119 (KMNIK) | – | 19 | –
54 | 5mer-1120 (RPPDR) | – | 33 | –
55 | 5mer-1121 (RFKVK) | – | 29 | –
56 | 5mer-1122 (RNTDR) | – | 14 | –
57 | 5mer-1123 (KYEKR) | – | 24 | –
58 | 5mer-1124 (KKPVK) | – | 30 | –
59 | 5mer-1125 (RYPFK) | – | 29 | –
60 | 5mer-1126 (KPTHK) | – | 26 | –
61 | 5mer-1127 (RIADR) | – | 16 | –
62 | 5mer-1128 (REWVR) | – | 26 | –
63 | 5mer-1129 (KFDAR) | – | 14 | –
64 | 5mer-1130 (RFMVR) | – | 17 | –
65 | 5mer-1131 (KCDGK) | – | 14 | –
66 | 5mer-1132 (KFSMK) | – | 19 | –
67 | 5mer-1133 (KCSMK) | – | 23 | –
68 | 5mer-1134 (RTCKR) | – | 26 | –
69 | 5mer-1135 (RHTAR) | – | 17 | –

Row | Substance | Binding affinity [1] [Ru] | Binding affinity (5mer Bottom sequence) [Ru] | also measured
70 | 5mer-1136 (KNSAR) | – | 25 | –
71 | 5mer-1137 (KEEEK) | – | 22 | –
72 | 5mer-1138 (RENHK) | – | 24 | –
73 | 5mer-1139 (KHCWK) | – | 28 | –
74 | 5mer-1140 (RNEFK) | – | 28 | –
75 | 5mer-1141 (REEVR) | – | 26 | –
76 | 5mer-1142 (KTENK) | – | 24 | –
77 | 5mer-1143 (RATGK) | – | 19 | –
78 | 5mer-1144 (KAKNR) | – | 33 | –
79 | 5mer-1145 (RMPAK) | – | 25 | –
80 | 5mer-1146 (KPHGR) | – | 23 | –
81 | 5mer-1147 (RDTGK) | – | 16 | –
82 | 5mer-1148 (RDWFR) | – | 24 | –
83 | 5mer-1149 (KETDR) | – | 25 | –
84 | 5mer-1150 (KFTNR) | – | 12 | –
85 | 5mer-1151 (KTNAR) | – | 26 | –
86 | 5mer-1152 (KENFK) | – | 18 | –
87 | 5mer-1153 (RDAPR) | – | 27 | –
88 | 5mer-1154 (KCWVR) | – | 12 | –
89 | 5mer-1155 (RYDMK) | – | 25 | –
90 | 5mer-1156 (KKMNK) | – | 13 | –
91 | 5mer-1157 (KTSHR) | – | 21 | –
92 | 5mer-1158 (KYNPR) | – | 23 | –

Row | Substance | Binding affinity [1] [Ru] | Binding affinity (5mer Bottom sequence) [Ru] | also measured
93 | 5mer-1159 (KKWKK) | – | 17 | –
94 | 5mer-1160 (KETWR) | – | 14 | –
95 | 5mer-1161 (KCHDR) | – | 21 | –
96 | 5mer-1162 (KIKKK) | – | 15 | –
97 | 5mer-1163 (KKSKR) | – | 12 | –
98 | 5mer-1164 (RFPWR) | – | 33 | –
99 | 5mer-1165 (RNMNR) | – | 21 | –
100 | 5mer-1166 (KTHEK) | – | 32 | –
101 | 5mer-1167 (KESWK) | – | 12 | –
102 | 5mer-1168 (RHHWR) | – | 31 | –
103 | 5mer-1169 (KDTPK) | – | 29 | –
104 | 5mer-1170 (KHSEK) | – | 28 | –
105 | 5mer-1171 (RCSWK) | – | 21 | –
106 | 5mer-1172 (KIWWR) | – | 25 | –
107 | 5mer-1173 (KECKR) | – | 30 | –
108 | 5mer-1174 (KYSGK) | – | 25 | –
109 | 5mer-1175 (RDMIR) | – | 30 | –
110 | 5mer-1176 (KIHFK) | – | 25 | –
111 | 5mer-1177 (KIPVR) | – | 20 | –
112 | 5mer-1178 (RFDNR) | – | 22 | –
113 | 5mer-1179 (RMNVR) | – | 18 | –
114 | 5mer-1180 (KETAK) | – | 27 | –
115 | 5mer-1181 (KKAKR) | – | 22 | –

Row | Substance | Binding affinity [1] [Ru] | Binding affinity (5mer Bottom sequence) [Ru] | also measured
116 | 5mer-1182 (REKWK) | – | 15 | –
117 | 5mer-1183 (RHAPK) | – | 13 | –
118 | 5mer-1184 (RDSMK) | – | 14 | –
119 | 5mer-1185 (KPTGR) | – | 30 | –
120 | 5mer-1186 (KMWVK) | – | 12 | –
121 | 5mer-1187 (KHHIR) | – | 27 | –
122 | 5mer-1188 (KPSGK) | – | 30 | –
123 | 5mer-1189 (RKMDK) | – | 11 | –
124 | 5mer-1190 (RFSEK) | – | 32 | –
125 | 5mer-1191 (RMDWK) | – | 30 | –
126 | 5mer-1192 (RYAKK) | – | 28 | –
127 | 5mer-1193 (KHWFK) | – | 22 | –
128 | 5mer-1194 (RDNGK) | – | 18 | –
129 | 5mer-1195 (RHWEK) | – | 19 | –
130 | 5mer-1196 (RICIR) | – | 24 | –
131 | 5mer-1197 (KDDAR) | – | 24 | –
132 | 5mer-1198 (RAADK) | – | 25 | –
133 | 5mer-1199 (KNNNR) | – | 29 | –
134 | 5mer-1200 (RKNEK) | – | 16 | –
135 | 6mer-1-1 (KKVISK) | – | – | Binding affinity [2]: 122 Ru
136 | 6mer-1-2 (RKQILR) | – | – | Binding affinity [2]: 142 Ru
137 | 6mer-1-3 (RKRRSR) | – | – | Binding affinity [2]: 154 Ru
138 | 6mer-1-4 (RKSFYK) | – | – | Binding affinity [2]: 139 Ru

From patent publication US20250011363A1, “OPTIMIZED SHORTENED PEPTIDE THAT BINDS TO ACETYLCHOLINE RECEPTOR, AND USE THEREOF” (SKINMED CO., LTD., priority 2021, published 2025)
